Test results taken from patent US20230414780A1.

Assays:
[1] = biological target: murine TfR expressed by murine neuroblastoma Neuro-2a cells (mouse) (UniProt Q62351); assay: competition with C5-Alexa680 (100 nM) on living Neuro-2a cells, 3 hrs at 37 C, flow cytometry; Ki/app, mean ± SD
[2] = biological target: murine TfR expressed by murine neuroblastoma Neuro-2a cells (mouse) (UniProt Q62351); assay: cell-based or functional assay

Sequence of murine TfR expressed by murine neuroblastoma Neuro-2a cells (mouse) (Q62351 whole entry): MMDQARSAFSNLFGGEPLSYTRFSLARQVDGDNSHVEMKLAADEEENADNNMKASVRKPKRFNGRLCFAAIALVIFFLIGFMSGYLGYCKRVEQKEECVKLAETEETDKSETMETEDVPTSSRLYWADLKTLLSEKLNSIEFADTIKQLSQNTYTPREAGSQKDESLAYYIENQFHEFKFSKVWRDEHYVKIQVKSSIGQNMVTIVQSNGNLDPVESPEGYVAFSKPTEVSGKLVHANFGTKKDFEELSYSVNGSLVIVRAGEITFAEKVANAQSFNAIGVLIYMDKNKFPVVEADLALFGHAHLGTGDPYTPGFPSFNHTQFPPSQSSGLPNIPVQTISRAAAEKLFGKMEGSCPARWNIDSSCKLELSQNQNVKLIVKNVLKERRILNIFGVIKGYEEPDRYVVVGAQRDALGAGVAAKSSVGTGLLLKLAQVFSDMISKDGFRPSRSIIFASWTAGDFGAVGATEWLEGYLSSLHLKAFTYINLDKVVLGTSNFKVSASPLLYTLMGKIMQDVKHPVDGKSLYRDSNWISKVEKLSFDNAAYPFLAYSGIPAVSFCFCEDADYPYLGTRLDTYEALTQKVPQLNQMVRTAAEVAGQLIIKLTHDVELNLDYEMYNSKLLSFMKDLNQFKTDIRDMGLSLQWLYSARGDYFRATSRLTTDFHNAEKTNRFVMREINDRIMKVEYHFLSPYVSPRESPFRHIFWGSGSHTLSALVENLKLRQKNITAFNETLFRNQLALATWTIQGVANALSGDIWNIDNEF

B1: C5-hFc-siSOD1m-5'VP (Fc fusion, part only; not given: Fc knob and hole arms, part only)
chain, part: EVQLVESGGGVVQPGGSLKLSCVASGTDFSINFIRWYRQAPGKQREFVAGFTATGNTNYADSMKGRFTISRDNTKNAVYLQIDSLKPEDTAVYYCYMLDKWGQGTQVTVSS
[1]
  Ki: 494 nM
[2]
  IC50 of mSOD1 mRNA downregulation, free uptake on Neuro-2a cells: 8.7 nM
